Patent publication US6884600

Legend:
[1] = target: PP1GL, glycogen-associated form of PP1 in rat hepatic glycogen-protein particles (rat); assay: cell-based or functional assay
[2] = target: myosin from chicken gizzard, dephosphorylated form (chicken) (UniProt P10587); assay: co-sedimentation with M21 in excess (10-50 µM M21, 1 µM myosin), Coomassie-stained gel
[3] = target: myosin from chicken gizzard, dephosphorylated form (chicken) (UniProt P10587); assay: co-sedimentation, 30 nM PP1M with 1 µM myosin

myosin from chicken gizzard, dephosphorylated form (chicken), sequence (P10587 2-1979, chain 1 of 3): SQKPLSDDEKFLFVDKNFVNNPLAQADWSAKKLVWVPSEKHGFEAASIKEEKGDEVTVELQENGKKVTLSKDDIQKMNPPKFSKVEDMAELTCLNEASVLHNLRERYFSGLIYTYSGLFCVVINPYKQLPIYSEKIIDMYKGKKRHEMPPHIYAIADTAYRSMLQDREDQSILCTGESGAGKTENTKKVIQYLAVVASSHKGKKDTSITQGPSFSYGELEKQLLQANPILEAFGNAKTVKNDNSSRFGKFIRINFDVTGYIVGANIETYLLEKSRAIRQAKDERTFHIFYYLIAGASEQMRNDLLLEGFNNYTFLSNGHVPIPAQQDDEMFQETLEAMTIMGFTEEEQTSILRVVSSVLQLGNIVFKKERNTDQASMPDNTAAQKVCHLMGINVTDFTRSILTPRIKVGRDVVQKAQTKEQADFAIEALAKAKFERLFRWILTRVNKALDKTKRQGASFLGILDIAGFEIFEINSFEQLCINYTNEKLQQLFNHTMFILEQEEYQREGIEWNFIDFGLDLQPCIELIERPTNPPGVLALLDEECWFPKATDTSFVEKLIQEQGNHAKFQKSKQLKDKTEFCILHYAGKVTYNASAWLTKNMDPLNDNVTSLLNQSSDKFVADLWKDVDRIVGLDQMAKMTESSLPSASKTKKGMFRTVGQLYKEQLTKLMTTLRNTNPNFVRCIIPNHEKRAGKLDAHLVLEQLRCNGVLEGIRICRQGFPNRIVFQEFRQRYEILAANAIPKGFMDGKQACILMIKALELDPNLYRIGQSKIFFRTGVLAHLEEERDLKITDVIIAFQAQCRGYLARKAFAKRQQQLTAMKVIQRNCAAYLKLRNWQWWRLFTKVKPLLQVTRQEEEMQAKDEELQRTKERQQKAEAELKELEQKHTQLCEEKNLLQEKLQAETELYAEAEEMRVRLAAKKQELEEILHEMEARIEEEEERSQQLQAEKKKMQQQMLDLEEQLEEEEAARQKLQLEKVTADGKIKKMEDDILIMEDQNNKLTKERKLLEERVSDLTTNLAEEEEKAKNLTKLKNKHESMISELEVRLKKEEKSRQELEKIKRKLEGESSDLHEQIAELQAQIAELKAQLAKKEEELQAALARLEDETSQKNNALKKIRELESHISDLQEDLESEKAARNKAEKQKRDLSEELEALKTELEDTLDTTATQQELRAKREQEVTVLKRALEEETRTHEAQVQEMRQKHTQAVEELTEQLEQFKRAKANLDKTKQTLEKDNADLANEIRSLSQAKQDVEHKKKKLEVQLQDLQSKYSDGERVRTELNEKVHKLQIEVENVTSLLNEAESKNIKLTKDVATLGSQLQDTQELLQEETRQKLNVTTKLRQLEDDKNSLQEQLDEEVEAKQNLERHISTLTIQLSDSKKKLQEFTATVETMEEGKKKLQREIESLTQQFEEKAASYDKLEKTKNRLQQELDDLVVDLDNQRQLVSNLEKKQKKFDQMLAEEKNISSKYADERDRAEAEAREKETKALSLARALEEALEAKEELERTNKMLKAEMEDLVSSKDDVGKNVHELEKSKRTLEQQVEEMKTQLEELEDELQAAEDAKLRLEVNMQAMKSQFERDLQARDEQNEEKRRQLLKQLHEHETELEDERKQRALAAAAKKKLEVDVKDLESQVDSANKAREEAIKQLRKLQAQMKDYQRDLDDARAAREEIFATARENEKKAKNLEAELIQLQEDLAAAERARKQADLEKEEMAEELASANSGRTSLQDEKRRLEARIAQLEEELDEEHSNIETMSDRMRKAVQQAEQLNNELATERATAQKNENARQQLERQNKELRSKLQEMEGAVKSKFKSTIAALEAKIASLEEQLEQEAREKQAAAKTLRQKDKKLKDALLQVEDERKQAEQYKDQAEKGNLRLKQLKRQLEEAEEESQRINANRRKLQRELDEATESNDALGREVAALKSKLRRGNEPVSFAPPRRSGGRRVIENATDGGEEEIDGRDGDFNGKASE
myosin from chicken gizzard, dephosphorylated form (chicken), sequence (P02612 2-172, chain 2 of 3, further chain): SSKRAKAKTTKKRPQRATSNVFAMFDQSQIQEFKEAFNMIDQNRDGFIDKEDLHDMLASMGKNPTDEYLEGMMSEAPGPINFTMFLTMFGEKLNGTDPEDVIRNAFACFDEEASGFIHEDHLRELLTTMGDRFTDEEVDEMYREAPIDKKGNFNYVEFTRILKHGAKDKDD
myosin from chicken gizzard, dephosphorylated form (chicken), sequence (P02607 2-151, chain 3 of 3, further chain): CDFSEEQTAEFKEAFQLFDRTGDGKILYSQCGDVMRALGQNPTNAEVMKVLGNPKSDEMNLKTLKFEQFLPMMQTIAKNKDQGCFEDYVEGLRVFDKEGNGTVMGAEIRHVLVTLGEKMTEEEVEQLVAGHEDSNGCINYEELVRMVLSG
PP1M, myosin-associated form of PP1 from chicken gizzard, sequence (P62207 2-327): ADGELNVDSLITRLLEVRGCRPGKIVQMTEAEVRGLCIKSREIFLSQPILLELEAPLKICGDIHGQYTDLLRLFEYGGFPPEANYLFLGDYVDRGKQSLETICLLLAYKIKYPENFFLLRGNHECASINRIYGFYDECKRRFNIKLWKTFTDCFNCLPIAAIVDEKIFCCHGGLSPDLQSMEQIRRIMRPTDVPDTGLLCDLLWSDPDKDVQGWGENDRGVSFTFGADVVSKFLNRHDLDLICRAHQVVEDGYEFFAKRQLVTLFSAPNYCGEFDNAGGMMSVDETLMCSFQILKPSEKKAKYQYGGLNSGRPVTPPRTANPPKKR
PP1M, myosin-associated form of PP1 from chicken gizzard, sequence (chain): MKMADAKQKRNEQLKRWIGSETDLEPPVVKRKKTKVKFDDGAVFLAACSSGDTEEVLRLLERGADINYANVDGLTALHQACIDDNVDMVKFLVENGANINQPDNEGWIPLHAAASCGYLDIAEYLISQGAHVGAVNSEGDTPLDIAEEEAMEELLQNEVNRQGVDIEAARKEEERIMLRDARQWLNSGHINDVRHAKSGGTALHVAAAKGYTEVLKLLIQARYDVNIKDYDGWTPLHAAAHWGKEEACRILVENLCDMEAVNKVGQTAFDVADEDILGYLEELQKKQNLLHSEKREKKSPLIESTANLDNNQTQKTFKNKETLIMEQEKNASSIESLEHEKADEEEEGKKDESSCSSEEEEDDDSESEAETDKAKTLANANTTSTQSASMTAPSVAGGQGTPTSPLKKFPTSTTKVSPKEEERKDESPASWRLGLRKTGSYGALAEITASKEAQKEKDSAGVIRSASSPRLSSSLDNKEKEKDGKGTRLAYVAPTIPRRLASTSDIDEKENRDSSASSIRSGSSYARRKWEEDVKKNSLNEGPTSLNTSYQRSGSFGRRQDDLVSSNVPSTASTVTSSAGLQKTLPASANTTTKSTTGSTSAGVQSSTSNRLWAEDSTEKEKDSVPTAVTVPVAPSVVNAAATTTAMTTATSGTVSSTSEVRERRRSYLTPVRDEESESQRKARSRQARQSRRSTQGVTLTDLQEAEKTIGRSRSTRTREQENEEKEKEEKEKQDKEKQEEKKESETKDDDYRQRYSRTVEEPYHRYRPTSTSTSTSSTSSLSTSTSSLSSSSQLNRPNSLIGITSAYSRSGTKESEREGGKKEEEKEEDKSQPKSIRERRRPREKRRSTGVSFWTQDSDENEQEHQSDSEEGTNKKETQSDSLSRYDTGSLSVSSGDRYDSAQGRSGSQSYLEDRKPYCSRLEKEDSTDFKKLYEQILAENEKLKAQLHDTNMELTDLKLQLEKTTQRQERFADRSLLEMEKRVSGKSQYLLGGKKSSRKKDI

GM[G63-N75] variant with Val 66 changed to Ala (peptide)
effectiveness of disruption of the PP1-GL complex relative to wild type GM[63-75] [1]: 100 fold

M21 subunit of chicken gizzard PP1M, full length (M1-K186)
moles of M21 subunit bound to each myosin dimer (mol/mol myosin dimer) [2]: > 20

PP1M, myosin-associated form of PP1 from chicken gizzard (from UniProt P62207 2-327) (enzyme)
percent of myosin P-light chain phosphatase recovered in the myosin pellet [3]: 85%
